Assay results as given in paper PMC5617326 (ACS Catalysis, 2017).

Tests used:
[1] = molecular target: the molecule itself; experiment: crystal structure; bCinS co-crystallised with 2 mM FNPP (Morpheus II A4, pH 6.5), also soaked with 2 mM FGPP; space group P1, two molecules in the asymmetric unit; interface analysed with PISA
[2] = molecular target: the molecule itself; experiment: crystal structure; bLinS apo (25% w/v PEG3350) and co-crystallised with 2 mM FGPP (Morpheus D7, pH 7.5); space group I4, two molecules in the asymmetric unit

B1: 1,8-cineole synthase from Streptomyces clavuligerus (enzyme, Streptomyces clavuligerus ATCC 27064, UniProt B5GMG2 1-330, looked up)
chain: MPAGHEEFDIPFPSRVNPFHARAEDRHVAWMRAMGLITGDAAEATYRRWSPAKVGARWFYLAQGEDLDLGCDIFGWFFAYDDHFDGPTGTDPRQTAAFVNRTVAMLDPRADPTGEHPLNIAFHDLWQRESAPMSPLWQRRAVDHWTQYLTAHITEATNRTRHTSPTIADYLELRHRTGFMPPLLDLIERVWRAEIPAPVYTTPEVQTLLHTTNQNINIVNDVLSLEKEEAHGDPHNLVLVIQHERQSTRQQALATARRMIDEWTDTFIRTEPRLPALCGRLGIPLADRTSLYTAVEGMRAAIRGNYDWCAETNRYAVHRPTGTGRATTPW
stoichiometry N [1]: 2

B2: linalool synthase from Streptomyces clavuligerus (enzyme, Streptomyces clavuligerus ATCC 27064, UniProt D5SL78 1-329, looked up)
chain: MQEFEFAVPAPSRVSPDLARARARHLDWVHAMDLVRGEEARRRYEFSCVADIGAYGYPHATGADLDLCVDVLGWTFLFDDQFDAGDGRERDALAVCAELTDLLWKGTAATAASPPIVVAFSDCWERMRAGMSDAWRRRTVHEWVDYLAGWPTKLADRAHGAVLDPAAHLRARHRTICCRPLFALAERVGGYEVPRRAWHSSRLDGMRFTTSDAVIGMNELHSFEKDRAQGHANLVLSLVHHGGLTGPEAVTRVCDLVQGSIESFLRLRSGLPELGRALGVEGAVLDRYADALSAFCRGYHDWGRGASRYTTRDHPGDLGLENLVARSSG
binding result [2]: binds
